Assay results: paper PMC11406360, “The enzymatic oxygen sensor cysteamine dioxygenase binds its protein substrates through their N-termini” (The Journal of Biological Chemistry, 2024)

T1: 2-aminoethanethiol (cysteamine) dioxygenase (ADO), biotinylated, for SPR (human, UniProt Q96SZ5 1-270, biotin (N terminally biotinylated; 0.2 mM biotin added at induction))
T1 construct: 2-aminoethanethiol (cysteamine) dioxygenase (ADO), human, UniProt Q96SZ5, full length; In the chelation experiments the metal was removed and iron put back on the chip (see assays a2, a3); Used also as the ADO of the functional rows, although the enzyme assays used the pET28a-ADO construct (N-terminal His tag); also called WT ADO; native ADO; source: E. coli Rosetta2(DE3), pQE80L-Navi construct, …
T1 sequence (looked up): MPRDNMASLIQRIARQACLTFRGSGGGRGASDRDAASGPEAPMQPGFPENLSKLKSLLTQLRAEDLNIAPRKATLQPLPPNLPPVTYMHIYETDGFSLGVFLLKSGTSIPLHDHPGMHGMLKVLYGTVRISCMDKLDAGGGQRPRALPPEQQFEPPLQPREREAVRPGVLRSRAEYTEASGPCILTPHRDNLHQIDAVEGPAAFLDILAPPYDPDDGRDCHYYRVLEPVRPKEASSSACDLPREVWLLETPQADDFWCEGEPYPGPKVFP

T2: 2-aminoethanethiol (cysteamine) dioxygenase (ADO), biotinylated, for SPR (human, UniProt Q96SZ5 1-270, biotin (N terminally biotinylated; 0.2 mM biotin added at induction))
T2 chain: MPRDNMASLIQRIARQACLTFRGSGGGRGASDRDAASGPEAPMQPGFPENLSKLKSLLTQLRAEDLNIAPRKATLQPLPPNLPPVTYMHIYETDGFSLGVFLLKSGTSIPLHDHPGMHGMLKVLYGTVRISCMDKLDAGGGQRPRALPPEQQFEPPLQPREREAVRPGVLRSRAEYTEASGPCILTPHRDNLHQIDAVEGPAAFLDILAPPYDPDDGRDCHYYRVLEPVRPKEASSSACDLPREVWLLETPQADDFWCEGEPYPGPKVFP

B1: IL32-P4A peptide (peptide, UniProt P24001 2-15, looked up)
peptide: CFAKVLSDDMKKLK
notes: IL32 residues 2-15 (initiating methionine denoted as 1), P4A; source: synthetic peptide (SPPS, HPLC purified)
B2: IL32-C2S peptide (peptide, UniProt P24001 2-15, looked up)
peptide: SFPKVLSDDMKKLK
notes: IL32 residues 2-15 (initiating methionine denoted as 1), Nt-cys to serine; source: synthetic peptide (SPPS, HPLC purified)
B3: IL32-K5A peptide (peptide, UniProt P24001 2-15, looked up)
peptide: CFPAVLSDDMKKLK
notes: IL32 residues 2-15 (initiating methionine denoted as 1), K5A; source: synthetic peptide (SPPS, HPLC purified)
B4: IL32-F3A peptide (peptide, UniProt P24001 2-15, looked up)
peptide: CAPKVLSDDMKKLK
notes: IL32 residues 2-15 (initiating methionine denoted as 1), F3A; source: synthetic peptide (SPPS, HPLC purified)
B5: RGS5-K3A peptide (peptide, UniProt O15539 2-15, looked up)
peptide: CAGLAALPHSCLER
notes: RGS5 residues 2-15 (initiating methionine denoted as 1), K3A; source: synthetic peptide (SPPS, HPLC purified)
B6: RGS5-K3L peptide (peptide, UniProt O15539 2-15, looked up)
peptide: CLGLAALPHSCLER
notes: RGS5 residues 2-15 (initiating methionine denoted as 1), K3L; source: synthetic peptide
B7: RGS5-K3Y peptide (peptide, UniProt O15539 2-15, looked up)
peptide: CYGLAALPHSCLER
notes: RGS5 residues 2-15 (initiating methionine denoted as 1), K3Y; source: synthetic peptide
B8: RGS5-K3D peptide (peptide, UniProt O15539 2-15, looked up)
peptide: CDGLAALPHSCLER
notes: RGS5 residues 2-15 (initiating methionine denoted as 1), K3D; source: synthetic peptide
B9: RGS5-K3W peptide (peptide, UniProt O15539 2-15, looked up)
peptide: CWGLAALPHSCLER
notes: RGS5 residues 2-15 (initiating methionine denoted as 1), K3W; source: synthetic peptide
B10: RGS5-K3R peptide (peptide, UniProt O15539 2-15, looked up)
peptide: CRGLAALPHSCLER
notes: RGS5 residues 2-15 (initiating methionine denoted as 1), K3R; source: synthetic peptide
B11: full-length RGS5 (RGS5^FL) (natural protein)
chain: CKGLAALPHSCLERAKEIKIKLGILLQKPDSVGDLVIPYNEKPEKPAKTQKTSLDEALQWRDSLDKLLQNNYGLASFKSFLKSEFSEENLEFWIACEDYKKIKSPAKMAEKAKQIYEEFIQTEAPKEVNIDHFTKDITMKNLVEPSLSSFDMAQKRIHALMEKDSLPRFVRSEFYQELIK
B12: RGS5^FL-C2S (natural protein)
chain: SKGLAALPHSCLERAKEIKIKLGILLQKPDSVGDLVIPYNEKPEKPAKTQKTSLDEALQWRDSLDKLLQNNYGLASFKSFLKSEFSEENLEFWIACEDYKKIKSPAKMAEKAKQIYEEFIQTEAPKEVNIDHFTKDITMKNLVEPSLSSFDMAQKRIHALMEKDSLPRFVRSEFYQELIK
B13: RGS5-G4A peptide (peptide, UniProt O15539 2-15, looked up)
peptide: CKALAALPHSCLER
notes: RGS5 residues 2-15 (initiating methionine denoted as 1), G4A; source: synthetic peptide (SPPS, HPLC purified)
B14: RGS5-G4K peptide (peptide, UniProt O15539 2-15, looked up)
peptide: CKKLAALPHSCLER
notes: RGS5 residues 2-15 (initiating methionine denoted as 1), G4K; source: synthetic peptide
B15: RGS5-G4P peptide (peptide, UniProt O15539 2-15, looked up)
peptide: CKPLAALPHSCLER
notes: source: synthetic peptide
B16: RGS5-C2S peptide (peptide, UniProt O15539 2-15, looked up)
peptide: SKGLAALPHSCLER
notes: RGS5 residues 2-15 (initiating methionine denoted as 1), Nt-cys to serine; source: synthetic peptide (SPPS, HPLC purified)
B17: IL32-L7A peptide (peptide, UniProt P24001 2-15, looked up)
peptide: CFPKVASDDMKKLK
notes: IL32 residues 2-15 (initiating methionine denoted as 1), L7A; source: synthetic peptide (SPPS, HPLC purified)
B18: RGS5-R15A (peptide)
chain: CKGLAALPHSCLEA
B19: RGS5-L5A (peptide)
chain: CKGAAALPHSCLER
B20: RGS5-S11A (peptide)
chain: CKGLAALPHACLER
B21: RGS5-H10A (peptide)
chain: CKGLAALPASCLER
B22: RGS5-C12A (peptide)
chain: CKGLAALPHSALER
B23: RGS5-P9A (peptide)
chain: CKGLAALAHSCLER
B24: RGS5-L8A (peptide)
chain: CKGLAAAPHSCLER

The binders below were run against T1, 2-aminoethanethiol (cysteamine) … (assay: SPR; Biacore T200; biotinylated ADO immobilized on a Biotin CAP chip (∼2500 to 3000 RU), peptide/protein substrates injected; 4 °C; 20 mM Hepes pH 7.5, 500 mM NaCl, 10 mM DTT, 0.1% tween-20; 50 μl/min; multicycle, equilibrium steady state affinity 1:1 binding model). Conditions: both partners purified.

Question: Which Kd does the source give for B1 here?
Answer: The Kd was 150 ± 1.2 nM.

Question: With B2 as the binder, how does the Kd read?
Answer: Its Kd is about 40000 nM.

Question: Which Kd does the source give for B3 here?
Answer: The Kd was 140 ± 2 nM.

Question: B4 was tested. Which Kd did it give?
Answer: The Kd was 2200 ± 72 nM.

Question: B5 was tested. Which Kd did it give?
Answer: The Kd was 540 ± 88 nM.

Question: Does B6 bind?
Answer: Result: binds

Question: Does B7 bind?
Answer: Result: binds

Question: Which Kd does the source give for B8 here?
Answer: Its Kd is 39000 ± 1200 nM.

Question: Does B9 bind?
Answer: Result: binds

Question: Does B10 bind?
Answer: Result: binds

Question: B11 was tested. Which Kd did it give?
Answer: Its Kd is 3000 ± 58 nM.

Question: B12 was tested. Which Kd did it give?
Answer: Its Kd is 63000 ± 610 nM.

Question: With B13 as the binder, how does the Kd read?
Answer: Its Kd is 710 ± 15 nM.

Question: With B14 as the binder, how does the Kd read?
Answer: Its Kd is 12000 ± 1500 nM.

Question: Does B15 bind?
Answer: Result: binds

Question: With B16 as the binder, how does the Kd read?
Answer: Its Kd is about 40000 nM.

Question: How did the Kd turn out when B17 was run?
Answer: The Kd was 570 ± 12 nM.

Target: T2, 2-aminoethanethiol (cysteamine) …
Test: SPR
Conditions: not given

Question: How did the Kd turn out when B18 was run?
Answer: The Kd was 210 nM.

Question: For B19, which Kd is on record?
Answer: The Kd was 220 nM.

Question: With B20 as the binder, how does the Kd read?
Answer: The Kd was 350 nM.

Question: Which Kd does the source give for B21 here?
Answer: The Kd was 240 nM.

Question: With B22 as the binder, how does the Kd read?
Answer: The Kd was 300 nM.

Question: With B23 as the binder, how does the Kd read?
Answer: The Kd was 250 nM.

Question: B24 was tested. Which Kd did it give?
Answer: Its Kd is 310 nM.
